The values that follow come from the nanobody polyreactivity screen of Harvey et al. (2022).

This data set in a line: yeast display, Sf9 membrane polyspecificity reagent, FACS + sequencing; frameworks hold sequencing errors. In short, it runs like this: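 After 36–48 hours of galactose induction, yeast (Saccharomyces cerevisiae BJ5465) displaying a synthetic nanobody library were stained at 4 °C for 1 hour with 10% biotinylated, detergent-solubilized Sf9 membrane reagent. Streptavidin microbeads enriched the stained cells before FACS sorting into low and high (top ~1%) gates on anti-HA and streptavidin fluorescence. Each clone's polyreactivity label reflects its gate of origin.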
On to “QVQLVESGGGLVQVGGSLRLSCAASGITLSYYAMGWYRQAPGKERELVASITVSRTSTYYADSVKGRFTISRDNAKNTVYLQMNSLKPEDTAVYYCAAYAYQYRFSGYGYWGQGTQVTVSS”, for which the “polyreactivity (PSR sort gate)” value was “low polyreactivity”.

As for “QVQLVESGGGLVRAGGSLRLSCAASGSIFKYYAMGWYRQAPGKDRELVAAISWSGGSTFYADSVKGRFTISRDNAKNTVYLQMNSLKPEDTAVFYCARYKLRSGRSGDHDVYWGQGTQVTVSS”, the “polyreactivity (PSR sort gate)” value is “high polyreactivity”.

For the sequence “QVQLVESGGGLVRAGGSLRLSCAASGSTFPFYAMGWYRQAPGKERELVAAITSGGSTYADSVKGRFTISRDNAKNTVYFQMNSLKAEVTAVYYCAASWPRWWRFGYWGQGTQVTVSS”, the “polyreactivity (PSR sort gate)” value is reported as “low polyreactivity”.

On to “QVQLVESGGGLYQAGGSLRLSCAASGIIFKSYLMGWDRQAPGKEREFVARITYRGGSTYYADSVKGRFTISRDNAKYTFNLQMNSLNQEDTAVYYCIARVRRRRYKYDYWGQGTQVTVST”, for which the “polyreactivity (PSR sort gate)” value is on record as “high polyreactivity”.

Turning to “QVQLVESGGGLYQARGSLRLSCAASGSIFLDNAKGWYRQAPGKERELVAAISSGGNTNYADSVKGRFTISRDNAKNTVYLQINSLKPEDTAVYYCAADPTKWHYYLPRYYYWGQGTQVTLSS”, the “polyreactivity (PSR sort gate)” value was “low polyreactivity”.

In the case of “QVQLVESGGGRVQAGGSLRLSCAASGITFDANAMGWDRQAPGKERELVARISSGGSTNYADSVKGRFTISRDNAKNTVYLQMNSLKPEDTAVYYCAKSYQYGFDYWGQGTQVNVSS”, the “polyreactivity (PSR sort gate)” value is given as “low polyreactivity”.

For the sequence “QVQLVESGGGRVQAGGSLRLSCAASGSIFFIYAMGWDRQAPSKEREFVAAISYGGGSTYYADSVKGRFTISRDNAKNTVYLQMNSLKPEDTAVYYCNADVPKSLLLYYPWGYGYWGQGTQVNVSS”, the “polyreactivity (PSR sort gate)” value is “low polyreactivity”.

As for “QVQLVESGGGSVQAGGSLRLSCAASGFTIRTYAMGWYRQAPGKERELVAAITSSGSSTYYAYSVKGRFTISRDNAKNTVYLQMNSLKPEDTAVYYCAADAPRSYRFGYWGQGTQVTVSA”, the “polyreactivity (PSR sort gate)” value was “high polyreactivity”.

With “QVQLVESGGGVVQAGGSLRISCAATGFIFRWYAMGWYIQAPGKERELVASINWSGSRTNYADPVKGRFTISRDNAKNTVYLQMNSLKPEDTAVYYCATYGTTSGYDSWGQGTQVTVSS”, the “polyreactivity (PSR sort gate)” value is given as “high polyreactivity”.

Regarding “QVQLVESGGGVVQAGGSLRLSCAASGFIFHQNAMGWYRPAPGKERELVAAITRSGTSTYYADSVKGRFTISRDYAKNTVYLQMYSLKPEDTAVYYCANDPVRVGRFGYEYWGQGTQVTVSS”, the “polyreactivity (PSR sort gate)” value is recorded as “low polyreactivity”.

Take “QVQLVESGGGVVQAGGSLRLSCAASGFIFPLYTMGWSRQAPGKERELVAAITGSGGSTYYADSVKGRFTISRDNAKNTVYLQMNSLKPEDTAVYYCAKDYTYGMDWGQGTQVTVSS”: the “polyreactivity (PSR sort gate)” value is recorded as “low polyreactivity”.

On to “QVQLVESGGGVVQAGGSLRLSCAASGFIFYYNTMGWYRQAPGKERELVASMTWSGDTTYYADSVKGRFTISRDNAKNTVYLQMNSLTPEDTAVYYCAAVHYDPYRRYDYWGQGTQVTVSS”, for which the “polyreactivity (PSR sort gate)” value was “low polyreactivity”.

In the case of “QVQLVESGGGVVQAGGSLRLSCAASGFTPGNVMGGYRQAPGKERELVAAISWTGDSTYYAASVKGRFTISRDNAKNTVYLQMNSLKPEDTAVYYCAADGVPGRALDYEYWGQGTQVTVSS”, the “polyreactivity (PSR sort gate)” value is listed as “high polyreactivity”.

In the case of “QVQLVESGGGVVQAGGSLRLSCAASGGIILEYVMGWYRQARGEERELVAAISWSGTSTYYADSVKGRFTISRDNAKNTVYLQMNSLKPEDTAVYYCAKSEGVYSGWYGVDDYDYWGQGTQVTVSS”, the “polyreactivity (PSR sort gate)” value is “low polyreactivity”.

Turning to “QVQLVESGGGVVQAGGSLRLSCAASGINFGRNTMGWYRQAPGKERELVAAIDSGGNTYADSVKGRFTISRDNAKNTVYLQMNSLKPEDTAVYYCAVDGGEFSSYGYWGQGTQVTVSS”, the “polyreactivity (PSR sort gate)” value is on record as “low polyreactivity”.

For “QVQLVESGGGVVQAGGSLRLSCAASGITFQYYDMGWFRPAPGKERELVAAISWSTDMTYADSVKGRFTISRDNAKNTDYLQMNSLKPEDTAVYYCAASTYEYTSYDYWGQGTQVTVSS”, the “polyreactivity (PSR sort gate)” value is “low polyreactivity”.

In the case of “QVQLVESGGGVVQAGGSLRLSCAASGLIFSPYAMGWYRPAPGKERELVAVITRSGGRTYYADSVKGRFTISRDNAKNTVYLQMNSLKPEDTAVYYCAATPKSWSSSTRDYWGQGTQVTVSS”, the “polyreactivity (PSR sort gate)” value was “high polyreactivity”.

With “QVQLVESGGGVVQAGGSLRLSCAASGLTFKFYAMGWYIQAPGKERELVAAINRSGSSTYYADSVKGRFTISRDNAKNTVYLQMNSLKPEDTAVYYCAKDSFTSTRQYDYWGQGTQVTVSS”, the “polyreactivity (PSR sort gate)” value was “low polyreactivity”.

Regarding “QVQLVESGGGVVQAGGSLRLSCAASGNIFFGNAMGWYRQAPGKERELVAAITKRGGSTYYADSVKGRFTISRDNAKNTVYLQMNSLKPEDTAVYYCAAVSYSKRTWSMNYWGQGTQVTVSS”, the “polyreactivity (PSR sort gate)” value was “high polyreactivity”.

On to “QVQLVESGGGVVQAGGSLRLSCAASGRIFLKYTMGWYRQAPGKARELVAAISRGGSTYYADSVKGRFTISRDNAKNTVYLQMNSLKPEDTAVYYCAATSYRRTGYNYWGQGTQVTVSS”, for which the “polyreactivity (PSR sort gate)” value is reported as “high polyreactivity”.

For “QVQLVESGGGVVQAGGSLRLSCAASGRIFRINGMGWYRQAPGKEREFVAAITSGGGTYYADSVKGRFTITRDNAKNTVYLQMNSLKPEDTAVYYCAAPSYRTRYYYWGQGTQVTVSS”, the “polyreactivity (PSR sort gate)” value is recorded as “high polyreactivity”.

As for “QVQLVESGGGVVQAGGSLRLSCAASGRIIKSYAMGWYRQAPGKERDLVAAITRGGRTSYADSVKGRFTISRDNAKNTVYLQMNSLKPEDTAVYYCADDGGWRYHPFSSLFDYWGQGPQVTVSS”, the “polyreactivity (PSR sort gate)” value is recorded as “low polyreactivity”.

For “QVQLVESGGGVVQAGGSLRLSCAASGRIISYNAMGWYRQAPGKERELVAAISWGGGSTYYADSVKGRFTISRDNAKNTVYLQMNSLKPEDTAVSYCAKGWYRIKRNDYWGQGTQVTVSS”, the “polyreactivity (PSR sort gate)” value is “low polyreactivity”.

As to “QVQLVESGGGVVQAGGSLRLSCAASGRNFGHYTMGWYRQAPGIERELVARISQSGGSTRYADSVKGRFTISRDNAKNTVYLQMNSLKPEDTAVYYWATYRRHFFYFAIPGYSSAYEYSGQGTQVTVSS”, the “polyreactivity (PSR sort gate)” value is reported as “high polyreactivity”.

Consider “QVQLVESGGGVVQAGGSLRLSCAASGRTFPGNAMGWYRQAPGKERELVASITWSTGSTYYADSVKGRFTISRDNAKNTVYLQMNSLKPEDTAVYYCAADQSVRSYQYSVHRGYWGQGTQVTVSS”, for which the “polyreactivity (PSR sort gate)” value is “high polyreactivity”.

In the case of “QVQLVESGGGVVQAGGSLRLSCAASGRTFPGYAMGWYRQAAGKERELVAAITRGSTNYADSVKGRFTISRDNAKNTVYKQMNSLKPEATAVYYCAADFQYYFFWEEDYWGHGTQVTVSS”, the “polyreactivity (PSR sort gate)” value is recorded as “low polyreactivity”.

In the case of “QVQLVESGGGVVQAGGSLRLSCAASGRTFYRYAMGWYRQAPGKERELDAAISWRGGSTRYADSVKGRFTISRDNAKNTVYFQMNSLKPEDTAVYSCATRSTYWGWSSYGMDHWGQGTQVTVSS”, the “polyreactivity (PSR sort gate)” value was “high polyreactivity”.

Consider “QVQLVESGGGVVQAGGSLRLSCAASGSIFDGYARGWYRQAPGKERELVAAITRDGGSTHYADSVKGRFTISRDNAKNTVYLEMNSLKPEDTAVYYCASRDHAFRYYRNPFKGKYDYWGQGTQVTVSS”, for which the “polyreactivity (PSR sort gate)” value was “low polyreactivity”.

Consider “QVQLVESGGGVVQAGGSLRLSCAASGSIFISNAMGWYRQAPGTERELVAAITLTGTSTYYADSVKGRFTISRDNAKNTVYLQMNSLKPEDTAVYYCAAEYYYIVTYDFGYWGQGTQVTVSS”, for which the “polyreactivity (PSR sort gate)” value is given as “low polyreactivity”.

“QVQLVESGGGVVQAGGSLRLSCAASGSIFSLYAMGWYRQAPGNERELVDAISSSGTSTYYADSVKGRFTISRDNAKNSVYLHMNSLKPEDTAVYYCNAYRRRATYNGDYWGQGTQVTVSS”: the “polyreactivity (PSR sort gate)” value is recorded as “high polyreactivity”.

On to “QVQLVESGGGVVQAGGSLRLSCAASGSTFFYYAMGWYRQAPGKERELVATIRGSAGRTYYADSVKGRFTISRDHAKYTVYLQMNCLKPEDTAVYYCARRYWPGSAYWIYDYWGQGTQVTVSS”, for which the “polyreactivity (PSR sort gate)” value was “high polyreactivity”.

As for “QVQLVESGGGVVQAGGSLRLSCAASGSTFGYYAMGWYRQAPGKERELVAAISQGAGRTYFADSVKGRFTISRDIAKNTVYLQMNSLKPEDTAVYYCAGSVTVHRWAYGYCGQGTQVTVSS”, the “polyreactivity (PSR sort gate)” value is recorded as “high polyreactivity”.

Turning to “QVQLVESGGGVVQAGGSLRLSCAASGSTFYANAMGWSRQAPGKERELVAAISSGGSTYYADSVKGRFTISRDNAKNTVYLQMNSLKPDDTAVYYCAKPFYSYRYGFGYWGQGTQVTVSS”, the “polyreactivity (PSR sort gate)” value is given as “low polyreactivity”.

As to “QVQLVESGGGVVQAGGSLRLSCAASGSTFYPNAMGWYRQAPGKERELVAAISRGTRTKYADSVKGRFTISRDNAKNTVYLQMNSLKPEDTAVYYCAADTGTGLDWGQGTQVTVSS”, the “polyreactivity (PSR sort gate)” value is reported as “high polyreactivity”.

On to “QVQLVESGGGVVQAGGSLRLSCAATGSIFISYDTGLYRQAPGKESELVAAITWSGDSTYYADSVKARFTISRDNAKNSVYLQMNSLKPEDTAVYYCAADWYFRNQRGYYWGQGTQVTVSS”, for which the “polyreactivity (PSR sort gate)” value is listed as “low polyreactivity”.

As for “QVQLVESGGGVVQAGGSLRLSCAAYGFIYKQNAMGWYRQAPGKERELVATITRGGDTKYADSVKGRFTISRDNAKNTVYLLMNSLKPEDTAVEYCAARYTPSSSIYRFYNFYGYDYWGQGTQVIVSS”, the “polyreactivity (PSR sort gate)” value is “high polyreactivity”.

For the sequence “QVQLVESGGGVVQAGGSLRLSGAASGSTLLRNAMGWYRQAPGKAWELVAVITYSGGSTYYADSVKGRFTISRDQAKNTVYLQMNSLIPEDTAVYYCAADKWYYVRYATDAYSKFDYWGQGTQVTVSS”, the “polyreactivity (PSR sort gate)” value is “low polyreactivity”.

Consider “QVQLVESGGGVVQAGGSLRLSSAASGRIFQAYAMGWYRQAPGKEWELVAAISRSGGGTYYSDSVKGRFTISRDYAKNTVYLQMNSLKPEDTAVYYCNARGSTARGRGYWGQGTQVTVTS”, for which the “polyreactivity (PSR sort gate)” value is “high polyreactivity”.

For the sequence “QVQLVESGGGVVQAGRSLRLSCAASGSPFAYNSMGWYRKAPGKERELVAAISWRGTRTYYADSVKGRFTISRDTAKNTVNLQMNSLKPEDTAVYYCATKYGISYDYWGQGTHVTVSS”, the “polyreactivity (PSR sort gate)” value is “high polyreactivity”.

Regarding “QVQLVESGGGVVQAGVTLRLSCAASGRIFHYNAMGWYRQAPGKEREMVAAFTWIGGSTYADSVKGRFTISRDNSKNSVYLLMNSLKPEDTAVYYFNARYIYRFDFWGQGTQVTVSS”, the “polyreactivity (PSR sort gate)” value is listed as “low polyreactivity”.

Regarding “QVQLVESGGGVVQARGSLRLSCAASGRIFDNAMGWYRQAPGKERELVAAISGGSTYYADSVKGRFTISRDNAKNTVYLQMHSLKPEDTAVYYCNTDPLGRTVVYGGDDYWGQGTQVTVSS”, the “polyreactivity (PSR sort gate)” value is reported as “low polyreactivity”.
